Results as given in US20200270588A1, “GLUCOSYL TRANSFERASE POLYPEPTIDES AND METHODS OF USE” (Syngenta Participations AG, priority 2017, published 2020).
Numbering of substitutions follows the chain as printed. Names and notes keep the numbering of the source.

Key:
[1] = test system: CON1C(=O)N(c2cc(C(F)(F)F)ccn2)C(O)[C@@H]1C; experiment: UDP-Glo glucosyl transferase assay, purified enzyme; type: biochemical, Zea mays; details: other: DMSO reagent blank as control, pH 7.5
Method: (§1) Glucosyl transferase activity is assayed via measurement of acceptor substrate-dependent production of UDP from ultrapure UDP-glucose using the Promega UDP-Glo™ method and according to the manufacturer's instructions. Assays are run in 96 well microtiter plates.
(§2) Enzyme, typically at a stock concentration of ˜2 mg/ml is diluted to an appropriate concentration in 50 mM K^+ Hepes buffer at pH7.5 containing 0.5 mg/mL bovine serum albumin (BSA) and 5 ul aliquots of this diluted enzyme added to each well of a Perkin Elmer white ½ area 96 well plate. […] Assays are run for an appropriate time (usually 10 to 60 min) so that the amount of UDP formed lies within the most nearly linear part of the UDP standard curve and are stopped with the addition and mixing of 25 ul UDP-Glo™ detection reagent (prepared as described below). Plates are then incubated at room temperature for 60 minutes and then read in a luminescence plate reader (Perkin Elmer Envision 2130 Multilabel Reader). A UDP standard curve is run alongside each set of assays and reagent blank control assays run with DMSO in place of test herbicide. Typically, 300 pmol of UDP corresponds to a Relative Luminescence Unit (RLU) reading of about 1.5E7 and the response curve between 0 and 600 pmol is fitted to a polynomial function (see for example FIG. 2).
(§3) The UDP-Glo™ reagents are made up and used according to the manufacturer's instructions. Thus, Nucleotide Detection Buffer and ATP are combined to make nucleotide detection reagent (NDR) dispensed into aliquots and frozen to be freshly thawed before use.
(§4) Km and kcat values in respect of UDP-glucose are derived by carrying out experiments to measure initial rates over a suitable range of concentrations of UDP glucose out at a fixed near saturating concentration of acceptor substrate. Best fit values of kcat, Km and kcat/Km are obtained by direct fitting of the data to the Michaelis-Menten equation using Graphpad Prism™ software.
(§5) Variants of C-terminally his tagged SEQ ID No:1 (w/t bx9 from Zea mays), exemplified as SEQ ID 16-30, were cloned, purified and assayed as described in Example 1. FIG. 4 depicts the data from some experiments to determine the kinetic parameters of some of these variants in respect of herbicide VI and table 12 summarizes the estimates of kinetic parameters obtained from further such experiments in respect of a range of herbicides.

[2] = test system: CN1CC(O)N(c2cc(C(F)(F)F)c(Cl)cn2)C1=O; experiment: as above; type: biochemical, Zea mays; details: other: control = inactive H24A mutant of bx9 (asterisk), pH 7.5
Method: as §1, §2, §3, §4, §5
(§6) Table 13 summarizes the results obtained from assays, run as described in Example 1, using a variety of alcohol and aminal PSII herbicides as substrates of the Zea mays bx9 w/t (i.e. C-terminally his tagged SEQ ID no 1) and various mutants of the same, selected from SEQ ID NO: 16-30). All of these proteins were C-terminally his-tagged, expressed and purified as described in Example 1. Assays were run and analyzed as described in example 1. It is seen that various of the mutations herein and combinations thereof led to significant improvements (over the w/t bx9 protein) in catalytic activity versus various of the herbicides and that these improvements are often of sufficient magnitude to be useful for conferring improved herbicide tolerance upon crop. This is especially the case given that even the unmutated w/t bx9 enzyme which has only modest glucosyl transferase activity (for example against compounds V and VI) was nevertheless adequately active to confer significant herbicide tolerance in the glass house (as shown in example 9) even without mutational improvement. It is also seen that particular mutations can lead to very much improved activity in respect of some chemistries but not to others but that, overall, there is at least one variant within the scope of the current invention that provides significant and useful improvement in tolerance to each of the chemistries tested.

[3] = test system: CN1CC(O)N(c2cc(C(F)(F)F)ccn2)C1=O; experiment: as above; type: biochemical, Zea mays; details: other: DMSO reagent blank as control, pH 7.5
Method: as §1, §2, §3, §4, §5, §6

[4] = test system: CON1C(=O)N(c2cc(C(F)(F)F)c(Cl)cn2)C(O)C1C; experiment: as above; type: biochemical, Zea mays; details: other: control = inactive H24A mutant of bx9 (asterisk), pH 7.5
Method: as §1, §2, §3, §4, §5, §6

[5] = test system: Cc1cnc(N2C(=O)N(C)CC2O)cc1C(F)(F)F; experiment: as above; type: biochemical, Zea mays; details: other: control = inactive H24A mutant of bx9 (asterisk), pH 7.5
Method: as §1, §2, §3, §4, §5, §6

[6] = LC/MS plate assay of crude E. coli extracts, Zea mays bx8 derivatives, herbicide V; type: biochemical; details: for activity with herbicide V: LC/MS; for activity relative to like-expressed Zea mays bx9 w/t extract: herbicide V, LC/MS peaks, estimate
Method: In an alternative method for assaying the various enzymes, the test glucosyl transferase enzyme is reacted with substrates exactly as above except that the assay is stopped by adding an equal volume of acetonitrile. Alternatively 50 or 100 μl samples from assay reactions are added to 500 μl ethyl acetate to stop the reaction. In this case samples are then vortexed and 400 μl of the ethyl acetate partition removed, dried down, and resuspended in 100 μl 80:20 acetonitrile/water. The formation of product gluco side and/or disappearance of substrate test herbicide is then monitored directly by LC/MS. Samples are analyzed by LC-MS using an Agilent 1290 liquid chromatography system and Thermo Q-Exactive mass spectrometer. The chromatography is achieved on a Waters Acquity C18 BEH (50×2.1 mm) 1.7 μm particle size column, using a 6 minute gradient run of Water (0.2% formic acid) and Acetonitrile. The Q-Exactive is operated in positive ionisation electrospray mode, using Full scan-AIF mode, at 35,000 resolution, between 100-800 m/z. All analytes are identified from the full scan data to within at least 5 ppm accuracy of their predicted pseudo-molecular ion [M+H]^+ m/z value. In order to obtain quantitative data standard curves are run using herbicides and herbicide glucosides synthesized as standards. Where these synthetic glucosides were not available the LC/MS assay could only be used to provide relative data.
The glucosyl transferase activities of the mutant bx8-derived polypeptides expressed in these strains were initially assayed versus herbicide V as described in Example 1. The partly purified C-terminally his tagged w/t bx8 enzyme (SEQ ID No: 2) catalyzed glucosyl transfer to herbicide V at a low rate estimated to be less than about 0.002/s at 1 mM herbicide V which, because of a relatively high background of UDP formation in the DMSO (no substrate reagent control) was difficult to quantify using the luminescence assay. Thus further assays were run by LC/MS using which technique the formation of an O-beta glucosyl glucoside of herbicide V could more easily be confirmed but only quantified in a relative sense. Thus the various derivatives of C-terminally his tagged Zea mays bx8 SEQ ID No:2 were cloned and expressed in E. coli BL21 (DE3) as described in Example 1 and assayed in plates as crude extracts, as in Example 2, but monitored by LCMS rather than the luminescence assay.
The different stereoisomer standards chromatographed distinctly on LC (FIGS. 8A-8H). By comparing the LC elution profiles of the standards with the enzyme products at the correct mass it was possible to characterize which polypeptides catalyzed the formation of which O-glucosides. Assay samples and glucoside conjugate standards are run using the identical chromatographic conditions to allow us to identify the conjugate isomer formed in the assay. In short, as would be expected for inverting glucosyl transferases all of the bx enzymes tested produced beta glucoside products (from the alpha-UDP-glucose substrate) from all herbicides tested. But there can be subtle variations between enzymes in stereochemistry of the products made at other chiral centers.

SEQ ID 25, mutant of Zea mays bx9 glucosyl transferase (Zea mays; A334R/M279F/S117C)
Km [1]: 8.5 µM | kcat [1]: 3.24 s⁻¹ | kcat/Km [1]: 380000 M⁻¹ s⁻¹

SEQ ID NO 22, mutant of Zea mays bx9 glucosyl transferase (Zea mays; A334K/F21Y/M279F/S117V/T220P)
Km [2]: 0.3200 mM | kcat [2]: 0.8 s⁻¹ | kcat/Km [2]: 2500 M⁻¹ s⁻¹ | Km [3]: 0.0147 mM | kcat [3]: 1.32 s⁻¹ | kcat/Km [3]: 89700 M⁻¹ s⁻¹ | Km [4]: 0.0200 mM | kcat [4]: 1.68 s⁻¹ | kcat/Km [4]: 68900 M⁻¹ s⁻¹ | Km [5]: 0.2000 mM | kcat [5]: 1.16 s⁻¹ | kcat/Km [5]: 5950 M⁻¹ s⁻¹

SEQ ID NO 21, mutant of Zea mays bx9 glucosyl transferase (Zea mays; A334K/F21Y/L194V/M279F/S117V)
Km [3]: 0.0573 mM | kcat [3]: 1.86 s⁻¹ | kcat/Km [3]: 32500 M⁻¹ s⁻¹

B1: SEQ ID NO: 58: zmBX8/zmBX9 hybrid polypeptide (protein)
chain: MAASCGGRVVVFPFPFQGHFNPVMRLARALHARGVGITVFHTAGARAPDPADYPADYRFVPVPVEVAPELMASEDIAAIVTALNAACEAPFRDRLSALLSAADGEAGEAGGRVRCVLTDVSWDAVLSAARGLGVPALGVMTASAATFRVYMAYRTLVDKGYLPVREERKDDAVAELPPYRVKDLLRHETCDLEEFADLLGRVIAAARLSSGLIFHTFPFIEAGTLGEIRDDMSVPVYAVAPLNKLVPTATASLHGVVQADRGCLQWLDAQRARSVLYVSFGSMAAMDPHEFVELAWGLADAGRPFVWVVRPNLIRGFESGALPDGVEDRVRGRGVVVSWAPQEEVLAHPAVGGFFTHCGWNSTVEAVSEGVPMICHPRHGDQYGNARYVCHVWKVGTEVAGDQLERGEIKAAIDRLMGGSEEGEGIRKRMNELKIAADKGIDESAGSDLTNLVHLINSY
modifications: Hybrid sequence between Zea mays Bx8 and Bx9 sequences
notes: zmBX8/zmBX9 hybrid polypeptide
activity with herbicide V [6]: active

B2: V367I, H376C: double mutant of Zea mays bx8 (protein)
chain: B1 chain with T248A, V256E, Q265R, V367I, H376C
modifications: Mutated Zea mays Bx8 protein sequence
activity with herbicide V [6]: detectable activity

B3: V367I, I374V: double mutant of Zea mays bx8 (protein)
chain: B1 chain with T248A, V256E, Q265R, V367I, I374V
modifications: Mutated Zea mays Bx8 protein sequence
activity with herbicide V [6]: detectable activity

B4: D170E, A72P, A174P: triple mutant of Zea mays bx8 (protein)
chain: B1 chain with A72P, D170E, A174P, T248A, V256E, Q265R
modifications: Mutated Zea mays Bx8 protein sequence
activity with herbicide V [6]: detectable activity

B5: E256V, R265Q: double mutant of Zea mays bx8 (protein)
chain: B1 chain with T248A
modifications: Mutated Zea mays Bx8 protein sequence
activity with herbicide V [6]: detectable activity

B6: SEQ ID NO: 40: I374V, H376C double mutant of Zea mays bx8 (protein)
chain: B1 chain with T248A, V256E, Q265R, I374V, H376C
modifications: Mutated Zea mays Bx8 protein sequence
activity with herbicide V [6]: detectable activity | activity relative to like-expressed Zea mays bx9 w/t extract [6]: about a third to a half | activity relative to like-expressed Zea mays bx9 w/t extract ([6]; listed as SEQ ID No 40): up to about half

B7: A246T, E256V: double mutant of Zea mays bx8, printed A248T, E256V in b223 (protein)
chain: B1 chain with Q265R
modifications: Mutated Zea mays Bx8 protein sequence
notes: double mutant of Zea mays bx8, printed A248T, E256V
activity with herbicide V [6]: detectable activity

B8: SEQ ID NO: 50: zmBX8/zmBX9 hybrid polypeptide (protein)
chain: MAASCGGRVVVFPFPFQGHFNPVMRLARALHARGVGITVFHTAGARAPDPADYPADYRFVPVPVEVAPELMASEDIAAIVTALNAACEAPFRDRLSALLSAADGEAGEAGGRVRCVLTDVSWDAVLSAARGLGVPALGVMTASAATFRVYMAYRTLVDKGYLPVREERKDDAVAELPPYRVKDLLRHETCDLEEFADLLGRVIAAARLSSGLIFHTFPFIEAGTLGEIRDDMSVPVYAVAPLNKLVPAATASLHGEVQADRGCLRWLDAQRARSVLYVSFGSMAAMDPHEFVELAWGLADAGRPFVWVVRPNLIRGFESGALPDGVEDRVRGRGVVVSWAPQEEVLAHPAVGGFFTHCGWNSTVEAISEGVPMVCCPRHGDQFGNMRYVCDVWKVGTELVGEQLERGQVKAAIDRLFGTKEGEEIKERMKEFKIAAAKGIGIGVDVDETASPRTDLTDLVDLIKSF
modifications: Hybrid sequence between Zea mays Bx8 and Bx9 sequences
notes: as for B1
activity with herbicide V [6]: active | activity relative to like-expressed Zea mays bx9 w/t extract [6]: about a third to a half | activity relative to like-expressed Zea mays bx9 w/t extract ([6]; listed as 50): up to about half

B9: SEQ ID NO: 51: zmBX8/zmBX9 hybrid polypeptide (bx8/bx9 hybrid 2) (protein)
chain: B8 chain with I367V, V374I, C376H
modifications: Hybrid sequence between Zea mays Bx8 and Bx9 sequences
activity with herbicide V [6]: active
